{
  "source": "IntAct's records for PubMed 19151721",
  "parents": {"B1": {"name": "SLAM family member 7 (Mus musculus), Q8BHK6 (parent)", "chain": "MARFSTYIIFTSVLCQLTVTAASGTLKKVAGALDGSVTFTLNITEIKVDYVVWTFNTFFLAMVKKDGVTSQSSNKERIVFPDGLYSMKLSQLKKNDSGAYRAEIYSTSSQASLIQEYVLHVYKHLSRPKVTIDRQSNKNGTCVINLTCSTDQDGENVTYSWKAVGQGDNQFHDGATLSIAWRSGEKDQALTCMARNPVSNSFSTPVFPQKLCEDAATDLTSLRGILYILCFSAVLILFAVLLTIFHTTWIKKGKGCEEDKKRVDRHQEMPDLCPHLEENADYDTIPYTEKRRPEEDAPNTFYSTVQIPKVVKSPSSLPAKPLVPRSLSFENVI", "partner": "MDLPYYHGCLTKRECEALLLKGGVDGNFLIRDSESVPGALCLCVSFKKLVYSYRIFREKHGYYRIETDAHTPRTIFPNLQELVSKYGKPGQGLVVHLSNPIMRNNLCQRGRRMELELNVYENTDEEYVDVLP"}},
  "data": [
    {"variants_of": "B1", "conditions": "with sh21b_mouse Sh2d1b", "values": [
      {"variant": "MARFSTYIIFTSVLCQLTVTAASGTLKKVAGALDGSVTFTLNITEIKVDYVVWTFNTFFLAMVKKDGVTSQSSNKERIVFPDGLYSMKLSQLKKNDSGAYRAEIYSTSSQASLIQEYVLHVYKHLSRPKVTIDRQSNKNGTCVINLTCSTDQDGENVTYSWKAVGQGDNQFHDGATLSIAWRSGEKDQALTCMARNPVSNSFSTPVFPQKLCEDAATDLTSLRGILYILCFSAVLILFAVLLTIFHTTWIKKGKGCEEDKKRVDRHQEMPDLCPHLEENADYDTIPYTEKRRPEEDAPNTFFSTVQIPKVVKSPSSLPAKPLVPRSLSFENVI", "note": "[Y302F]", "effect of a mutation on the interaction": "disrupting interaction"},
      {"variant": "MARFSTYIIFTSVLCQLTVTAASGTLKKVAGALDGSVTFTLNITEIKVDYVVWTFNTFFLAMVKKDGVTSQSSNKERIVFPDGLYSMKLSQLKKNDSGAYRAEIYSTSSQASLIQEYVLHVYKHLSRPKVTIDRQSNKNGTCVINLTCSTDQDGENVTYSWKAVGQGDNQFHDGATLSIAWRSGEKDQALTCMARNPVSNSFSTPVFPQKLCEDAATDLTSLRGILYILCFSAVLILFAVLLTIFHTTWIKKGKGCEEDKKRVDRHQEMPDLCPHLEENADFDTIPFTEKRRPEEDAPNTFFSTVQIPKVVKSPSSLPAKPLVPRSLSFENVI", "note": "[Y282F;Y287F;Y302F]", "effect of a mutation on the interaction": "disrupting interaction"}
    ]}
  ]
}
